# Data as given in article PMC9272835.
# Molecular target: trastuzumab
# Assay: BLI; trastuzumab (5 µg/mL) captured on anti-human IgG Fc (AHC) biosensors; serial dilutions of the masks or HER2 in solution; DPBS, 0.1% BSA, 0.02% Tween 20; global fit to a 1:1 model
binder,measurement,value
dAb (VHH) VHH: EVQLVESGGGLVQAGDSLTLSCAASGRTFSSVAMGWFRQAPGKERKFVANISWNGDSTYYTDSVKGRFTISRDNAKNTVYLQMSSLKPEDTAVYYCAADVRWTGDGHRADYWGQGTQVTVSS,Kd,0.192 nM
same,half-life of dissociation,3.3 h
same,koff,5.76e-05 s⁻¹
